Publication doi:10.1101/2021.10.26.465098

Molecular target: HAdV-C5, -D26 and -B35
Experiment: SPR

## human neutrophil protein 1 (HNP-1) (from UniProt P59665 65-94) (peptide)
  Kd: 37 to 76 nM
